Patent publication US12187772 (Regeneron, dated 2025)
Where two headings read alike, the source gives them in different places.

Tests used:
Experiment in all cases: cell-based or functional assay
[1] = biological target: T1, IL10 receptor (IL10 receptor subunit alpha IL10Ra and beta subunit IL10Rb) on Ramos/STAT3-Luc and … (UniProt Q13651 22-578; Q08334 20-325, limits assumed)
T1 sequence (looked up) 1: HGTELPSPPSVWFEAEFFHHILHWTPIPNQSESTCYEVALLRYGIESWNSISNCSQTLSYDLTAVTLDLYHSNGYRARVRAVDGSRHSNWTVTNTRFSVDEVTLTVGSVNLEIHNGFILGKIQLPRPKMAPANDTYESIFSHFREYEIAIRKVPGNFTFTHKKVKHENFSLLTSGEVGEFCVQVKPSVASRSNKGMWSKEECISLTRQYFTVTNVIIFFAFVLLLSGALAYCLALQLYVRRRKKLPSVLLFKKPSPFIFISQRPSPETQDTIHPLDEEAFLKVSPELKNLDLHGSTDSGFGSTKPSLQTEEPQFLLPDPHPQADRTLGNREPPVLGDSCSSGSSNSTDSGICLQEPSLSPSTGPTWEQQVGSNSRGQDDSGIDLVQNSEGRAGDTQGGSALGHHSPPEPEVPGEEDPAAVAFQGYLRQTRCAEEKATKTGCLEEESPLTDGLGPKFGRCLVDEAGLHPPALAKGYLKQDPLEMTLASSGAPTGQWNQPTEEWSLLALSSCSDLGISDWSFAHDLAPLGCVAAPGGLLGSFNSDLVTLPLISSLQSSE
T1 sequence (looked up) 2: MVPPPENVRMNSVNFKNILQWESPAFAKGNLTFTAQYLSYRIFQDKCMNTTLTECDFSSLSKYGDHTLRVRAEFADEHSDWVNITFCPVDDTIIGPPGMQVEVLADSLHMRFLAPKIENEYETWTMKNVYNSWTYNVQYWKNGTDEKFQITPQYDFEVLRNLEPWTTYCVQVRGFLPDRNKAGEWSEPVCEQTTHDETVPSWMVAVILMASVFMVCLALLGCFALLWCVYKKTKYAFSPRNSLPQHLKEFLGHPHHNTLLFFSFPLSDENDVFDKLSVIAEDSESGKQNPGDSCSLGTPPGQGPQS

[2] = biological target: T1, IL10 receptor (IL10 receptor subunit …); remark: listed apart in the source
[3] = biological target: T1, IL10 receptor (IL10 receptor subunit …); remark: listed apart in the source

Binder	Fold Induction of luciferase activity, Ramos/Stat3-Luc reporter cells [1]	Fold Induction of luciferase activity, TF-1/Stat3-Luc reporter cells [1]	EC50 [M] of luciferase activity, Ramos/STAT3-Luc reporter cells [1]	EC50 [M] of luciferase activity, TF-1/STAT3-Luc reporter cells [1]	EC50 of luciferase activity, Ramos/Stat3-Luc reporter cells [3]	EC50 of luciferase activity, TF-1/Stat3-Luc reporter cells [3]	Fold Induction of luciferase activity, Ramos/Stat3-Luc reporter cells [3]	Fold Induction of luciferase activity, TF-1/Stat3-Luc reporter cells [3]	Fold Induction of luciferase activity, Ramos/Stat3-Luc reporter cells [2]	Fold Induction of luciferase activity, TF-1/Stat3-Luc reporter cells [2]	further results
mIgG1 (murine IgG1 Fc isotype control; control antibody with murine IgG1 sequence) (antibody, V domains shown) VH: QVQLQESGPGLVAPSQSLSITCTVSGFSLTTFGVHWVRQSPGKGLEWLGVIWADETTNYNSALMSRLSISKDNSKSQVFLKMNGLRTDDTAIYSCARSKVSYYFDYWGRGTTLTVSS VL: NIMMTQSPSSLPVSPGEKVTMNCKSSRSVLYSLNQKNYLAWYQQKPGQSPKLLIYWASTRESGVPDRFTGSGSGTDFSLTISSVQAEDLAVYYCHQYLSSWTFGGGTKLEIKR	1.1 fold	1.1 fold									
IL10M2 (hIL10-3XG4S-Fc; Fc is IgG4s) (Fc fusion) SPGQGTQSENSCTHFPGNLPNMLRDLRDAFSRVKTFFQMKDQLDNLLLKESLLEDFKGYLGCQALSEMIQFYLEEVMPQAENQDPDIKAHVNSLGENLKTLRLRLRRCHRFLPCENKSKAVEQVKNAFNKLQEKGIYKAMSEFDIFINYIEAYMTMKIRNGGGGSGGGGSGGGGSESKYGPPCPPCPAPPVAGPSVFLFPPKPKDTLMISRTPEVTCVVVDVSQEDPEVQFNWYVDGVEVHNAKTKPREEQFNSTYRVVSVLTVLHQDWLNGKEYKCKVSNKGLPSSIEKTISKAKGQPREPQVYTLPPSQEEMTKNQVSLTCLVKGFYPSDIAVEWESNGQPENNYKTTPPVLDSDGSFFLYSRLTVDKSRWQEGNVFSCSVMHEALHNHYTQKSLSLSLGK	3.6 fold	4.1 fold	2.13e-10 M	5.15e-10 M							EC50 of luciferase activity, Ramos/Stat3-Luc reporter cells (IL10M2 L1) [2]: 0.254 nM; EC50 of luciferase activity, Ramos/Stat3-Luc reporter cells (IL10M2 L2) [2]: 0.192 nM; EC50 of luciferase activity, TF-1/Stat3-Luc reporter cells (IL10M2 L1) [2]: 0.507 nM; EC50 of luciferase activity, TF-1/Stat3-Luc reporter cells (IL10M2 L2) [2]: 0.45 nM; Fold Induction of luciferase activity, Ramos/Stat3-Luc reporter cells (IL10M2 L1) [2]: 3.42 fold; Fold Induction of luciferase activity, Ramos/Stat3-Luc reporter cells (IL10M2 L2) [2]: 3.06 fold; Fold Induction of luciferase activity, TF-1/Stat3-Luc reporter cells (IL10M2 L1) [2]: 2.85 fold; Fold Induction of luciferase activity, TF-1/Stat3-Luc reporter cells (IL10M2 L2) [2]: 2.68 fold
IL10M3 (hIL10-1XG4S-Fc; Fc is murine IgG1) (Fc fusion) SPGQGTQSENSCTHFPGNLPNMLRDLRDAFSRVKTFFQMKDQLDNLLLKESLLEDFKGYLGCQALSEMIQFYLEEVMPQAENQDPDIKAHVNSLGENLKTLRLRLRRCHRFLPCENKSKAVEQVKNAFNKLQEKGIYKAMSEFDIFINYIEAYMTMKIRNGGGGSVPRDCGCKPCICTVPEVSSVFIFPPKPKDVLTITLTPKVTCVVVDISKDDPEVQFSWFVDDVEVHTAQTQPREEQFNSTFRSVSELPIMHQDWLNGKEFKCRVNSAAFPAPIEKTISKTKGRPKAPQVYTIPPPKEQMAKDKVSLTCMITDFFPEDITVEWQWNGQPAENYKNTQPIMDTDGSYFVYSKLNVQKSNWEAGNTFTCSVLHEGLHNHHTEKSLSHSPGK	3.2 fold	3.4 fold	2.19e-10 M	4.51e-10 M							
IL10M6 (hIL10-2XG4S-Fc; Fc is IgG4s) (Fc fusion) SPGQGTQSENSCTHFPGNLPNMLRDLRDAFSRVKTFFQMKDQLDNLLLKESLLEDFKGYLGCQALSEMIQFYLEEVMPQAENQDPDIKAHVNSLGENLKTLRLRLRRCHRFLPCENKSKAVEQVKNAFNKLQEKGIYKAMSEFDIFINYIEAYMTMKIRNGGGGSGGGGSESKYGPPCPPCPAPPVAGPSVFLFPPKPKDTLMISRTPEVTCVVVDVSQEDPEVQFNWYVDGVEVHNAKTKPREEQFNSTYRVVSVLTVLHQDWLNGKEYKCKVSNKGLPSSIEKTISKAKGQPREPQVYTLPPSQEEMTKNQVSLTCLVKGFYPSDIAVEWESNGQPENNYKTTPPVLDSDGSFFLYSRLTVDKSRWQEGNVFSCSVMHEALHNHYTQKSLSLSLGK					0.127 nM	0.361 nM	3.02 fold	2.66 fold			
IL10M7 (hIL10-1XG4S-Fc; Fc is IgG4s) (Fc fusion) SPGQGTQSENSCTHFPGNLPNMLRDLRDAFSRVKTFFQMKDQLDNLLLKESLLEDFKGYLGCQALSEMIQFYLEEVMPQAENQDPDIKAHVNSLGENLKTLRLRLRRCHRFLPCENKSKAVEQVKNAFNKLQEKGIYKAMSEFDIFINYIEAYMTMKIRNGGGGSESKYGPPCPPCPAPPVAGPSVFLFPPKPKDTLMISRTPEVTCVVVDVSQEDPEVQFNWYVDGVEVHNAKTKPREEQFNSTYRVVSVLTVLHQDWLNGKEYKCKVSNKGLPSSIEKTISKAKGQPREPQVYTLPPSQEEMTKNQVSLTCLVKGFYPSDIAVEWESNGQPENNYKTTPPVLDSDGSFFLYSRLTVDKSRWQEGNVFSCSVMHEALHNHYTQKSLSLSLGK					0.172 nM	0.319 nM	2.88 fold	2.36 fold			
hIgG4s (human IgG4 Fc isotype control; Fc is IgG4s) (antibody, V domains shown) VH: EVQLVESGGGLVQPGGSLRLSCAASGFTLSTYAMTWVRQAPGKGLEWVSAINYRAANTWYADSVKGRFTISRDNSKNTLYLQMNSLRDEDTAVYYCAQDRVIIKDYYVMDVWGQGTTVTVSS VL: not shown	1 fold	1.4 fold							1.01 fold	0.99 fold	
hIgG1 (anti-FelD1 human IgG1 Fc isotype control) (antibody, V domains shown) VH: QVQLQESGPGLVKPSETLSLTCTVSGGSISSYYWSWIRQPPGKGLEWIGYIYYSGRTNYNPSLKSRVTISVDTSKNQFSLKLSSVTAADTAIYYCARHRVTRTADSFDYWGQGTLVTVSS VL: DIQMTQSPSSLSASVGDRVTITCQASQDINNYLNWYQQKTGKAPKFLIYDASNLETGVSSRFSGSGSGTDFTFTISSLQPEDVGTYYCHQYGDLPYTFGQGTKLEIKR									1.1 fold	1 fold	
Recombinant human IL10 (obtained from Peprotech, Princeton NJ, Product #200-10) (ligand) SPGQGTQSENSCTHFPGNLPNMLRDLRDAFSRVKTFFQMKDQLDNLLLKESLLEDFKGYLGCQALSEMIQFYLEEVMPQAENQDPDIKAHVNSLGENLKTLRLRLRRCHRFLPCENKSKAVEQVKNAFNKLQEKGIYKAMSEFDIFINYIEAYMTMKIRN	4.5 fold	5.9 fold	5.07e-11 M	7.05e-11 M					5.16 fold	4.02 fold	EC50 of luciferase activity, Ramos/Stat3-Luc reporter cells [2]: 0.0482 nM; EC50 of luciferase activity, TF-1/Stat3-Luc reporter cells [2]: 0.063 nM
IL10M8 (hIL10-Fc; Fc is IgG4s) (Fc fusion) SPGQGTQSENSCTHFPGNLPNMLRDLRDAFSRVKTFFQMKDQLDNLLLKESLLEDFKGYLGCQALSEMIQFYLEEVMPQAENQDPDIKAHVNSLGENLKTLRLRLRRCHRFLPCENKSKAVEQVKNAFNKLQEKGIYKAMSEFDIFINYIEAYMTMKIRNESKYGPPCPPCPAPPVAGPSVFLFPPKPKDTLMISRTPEVTCVVVDVSQEDPEVQFNWYVDGVEVHNAKTKPREEQFNSTYRVVSVLTVLHQDWLNGKEYKCKVSNKGLPSSIEKTISKAKGQPREPQVYTLPPSQEEMTKNQVSLTCLVKGFYPSDIAVEWESNGQPENNYKTTPPVLDSDGSFFLYSRLTVDKSRWQEGNVFSCSVMHEALHNHYTQKSLSLSLGK					0.268 nM	0.484 nM	3.2 fold	2.34 fold			
IL10M1 (Fc-3XG4S-hIL10; Fc is IgG4s) (Fc fusion) ESKYGPPCPPCPAPPVAGPSVFLFPPKPKDTLMISRTPEVTCVVVDVSQEDPEVQFNWYVDGVEVHNAKTKPREEQFNSTYRVVSVLTVLHQDWLNGKEYKCKVSNKGLPSSIEKTISKAKGQPREPQVYTLPPSQEEMTKNQVSLTCLVKGFYPSDIAVEWESNGQPENNYKTTPPVLDSDGSFFLYSRLTVDKSRWQEGNVFSCSVMHEALHNHYTQKSLSLSLGKGGGGSGGGGSGGGGSSPGQGTQSENSCTHFPGNLPNMLRDLRDAFSRVKTFFQMKDQLDNLLLKESLLEDFKGYLGCQALSEMIQFYLEEVMPQAENQDPDIKAHVNSLGENLKTLRLRLRRCHRFLPCENKSKAVEQVKNAFNKLQEKGIYKAMSEFDIFINYIEAYMTMKIRN	3.7 fold	4.8 fold	1.19e-10 M	1.18e-10 M							EC50 of luciferase activity, Ramos/Stat3-Luc reporter cells (IL10M1 L1) [2]: 0.117 nM; EC50 of luciferase activity, Ramos/Stat3-Luc reporter cells (IL10M1 L2) [2]: 0.148 nM; EC50 of luciferase activity, TF-1/Stat3-Luc reporter cells (IL10M1 L1) [2]: 0.139 nM; EC50 of luciferase activity, TF-1/Stat3-Luc reporter cells (IL10M1 L2) [2]: 0.134 nM; Fold Induction of luciferase activity, Ramos/Stat3-Luc reporter cells (IL10M1 L1) [2]: 4.11 fold; Fold Induction of luciferase activity, Ramos/Stat3-Luc reporter cells (IL10M1 L2) [2]: 3.66 fold; Fold Induction of luciferase activity, TF-1/Stat3-Luc reporter cells (IL10M1 L1) [2]: 4.12 fold; Fold Induction of luciferase activity, TF-1/Stat3-Luc reporter cells (IL10M1 L2) [2]: 3.4 fold
